In US12448434B2, “Antibodies specifically recognizing Pseudomonas PcrV and uses thereof” (priority 2019, dated 2025):
Substitutions are numbered along the chain they refer to.

B1: 7B1: optimized anti-PcrV mAb clone; VH SEQ ID NO: 62, VL SEQ ID NO: 67 (antibody, V domains shown)
VH: EVQLLESGGGLVQPGGSLRLSCTASGFTFSDNYMSWVRQAPGKGLDWVSVISESGGSTNYADSVKGRFSTSRDNSKSTLYLDMNSLRAEDTAIYYCAKGRFSTLSSHFFRAVYGMDVWGQGTAVTVSS
VL: DIQLTQSPSSLSASVGDRVTITCRASQGISSYLAWYQQKPGKAPKLLIYAASTLQSGVPSRFSGSGSGTDFTLTISSLQPEDFATYYCQQLSSYPLTFGGGTKVEIK
B2: 8C1: optimized anti-PcrV mAb clone; VH SEQ ID NO: 51, VL SEQ ID NO: 67 (antibody, V domains shown)
VH: B1 VH with Y33H, V50G, L104N, S106A
VL: B1 VL
B3: 7C1: optimized anti-PcrV mAb clone; VH SEQ ID NO: 52, VL SEQ ID NO: 65 (antibody, V domains shown)
VH: B1 VH with Y33H, V50G, L104S, F109Y
VL: B1 VL with T97S

tested on: PcrV; assay: BIACORE binding to PcrV; design: species or system Pseudomonas aeruginosa; settings: data not shown
Protocol: The association constant (ka), dissociation constant (kd) and the equilibrium dissociation constant (kD) for binding of optimized anti-PcrV mAb clones 7B1, 7C1, 8C1, 6D10 and reference antibody V2L2-MD to PcrV were tested by BIACORE (GE company).

Row | Molecule | association and dissociation kinetics in PcrV binding (ka and kd values)
1 | B1 | comparable association and dissociation kinetics
2 | B2 | comparable association and dissociation kinetics
3 | B3 | comparable association and dissociation kinetics

tested on: P. aeruginosa (PA103 strain); assay: Prophylactic mouse acute pneumonia model, organ burden; format: in vivo, BALB/c mice; settings: 10 mg/kg i.p. 24 hr before infection; 0.5*LD90; FIG. 8B
Protocol: In a prophylactic model, 7-8 week old BALB/c mice (Vital River Laboratory) were administered with antibodies or PBS intraperitoneally (i.p.) 24 hr before infection, at 10 mg/kg mouse weight. To induce acute pneumonia, the BALB/c mice were intranasally inoculated with P. aeruginosa (PA103 strain) suspended in a 40 μl inoculum at half the lethal dose (0.5*LD90; 3×10^5 CFU). 24 hours post-infection, mice were euthanized, where the lungs, spleens and kidneys were extracted, homogenized and diluted before plating on agar to measure the viable bacteria units (in CFU), which represented the P. aeruginosa burden in the respective organ sample.

Row | Molecule | reduction of organ burden in the lung, spleen and kidney relative to HIV-10E8 | reduction of organ burden in the lung, spleen and kidney relative to V2L2-MD
4 | B1 | higher efficacy in reducing organ burden | comparable efficacy in reducing organ burden
5 | B2 | higher efficacy in reducing organ burden | comparable efficacy in reducing organ burden
6 | B3 | higher efficacy in reducing organ burden | comparable efficacy in reducing organ burden

tested on: PcrV-negative A549 cells; assay: Cross-reactivity to PcrV-negative A549 cells by FACS; format: cell-based, human; settings: FIGS. 4A-4E, compared with no antibody and V2L2-MD
Protocol: Cross-reactivity to A549 cells: Using FACS, parental antibody 13-42, optimized antibodies 7C1, 7B1, 8C1, 6D10 as well as V2L2-MD were tested for cross-reactivity to PcrV-negative A549 cells.

Row | Molecule | binding to PcrV-negative A549 cells
7 | B1 | similarly low levels of A549 binding
8 | B2 | similarly low levels of A549 binding
9 | B3 | similarly low levels of A549 binding

tested on: not given; assay: not given; settings: rat, in vivo, iv
Protocol: Pharmacokinetic profile in rat: 40 healthy adult rats (about 0.2 kg by weight) were equally into two groups, where each group registered similar average weight. One group was injected intravenously with 30 mg/kg of V2L2-MD, 7C1, 7B1, 8C1 or 6D10 and the other group was injected intravenously with 3 mg/kg of V2L2-MD, 7C1, 7B1, 8C1 or 6D10. Blood was collected at […], and subsequently at 0 hour, 0.5 hour, 2 hour, 8 hour, 1 day, 3 days, 7 days, 11 days, 17 days, 23 days, 31 days, 41 days and 52 days after injection. After centrifugation, the plasma was used for analyzing antibody concentration using ELISA. For the ELISA experiment, synthetic PcrV was used to coat the wells of a 96-well plate. On the following day, after washing with PBST, blocking with 200 μL PBS-milk for an hour, and another wash with PBST, the plasma was added and incubated for an hour at 37° C. The plate was washed with 0.1% TBST for 6 times before 100 μL of Goat-anti-human Fc antibody-AP (1:3000 in PBS) was added to each well and incubated for an hour. After washing with 0.1% TBST for 6 times, 50 μL of pNPP was added to each well and color was developed for 10-20 minutes at 37° C. The signals were read by a microplate reader at 410 nm.

Row | Molecule | half-lives relative to reference antibody V2L2-MD
10 | B1 | comparable to or longer than that of reference antibody V2L2-MD
11 | B2 | comparable to or longer than that of reference antibody V2L2-MD
12 | B3 | comparable to or longer than that of reference antibody V2L2-MD

tested on: P. aeruginosa strains O1-52/66, O16-177/81, and O6-57/66; assay: RBC lysis inhibition assay, various strains (average); format: cell-based, Pseudomonas aeruginosa; settings: FIGS. 5A-5C
Protocol: Monoclonal scFv antibodies were selected and assessed for biological activity by RBC lysis assay. Briefly, red blood cells (RBCs) were prepared from fresh whole human or rabbit blood by centrifugation, supplemented with EDTA and rinsed with multiple phosphate-buffered saline (PBS) washes. Washed RBCs (2.5% [vol/vol] final) in Dulbecco's modified Eagle's medium (DMEM) plus 10% fetal bovine serum (FBS) (Gibco) and purified anti-PcrV antibodies diluted in PBS were combined into wells of a round-bottom 96-well plate. Strain 57/66(O6) P. aeruginosa was grown to mid-log phase in 2× YT medium (Oxford), harvested by centrifugation, and resuspended in DMEM-fetal bovine serum (FBS) at an optical density at 600 nm (OD600) of 0.15. Ten microliters of bacterial suspension was added to the RBC-antibody mixture, mixed by agitation, and incubated for 3 hours at 37° C. and 5% CO2. The plates were briefly centrifuged (1000 rpm, 1 min) to pellet the intact RBCs, the supernatants transferred to a flat-bottom 96-well plate, and the OD405 was measured to detect any lysis, from which the relative amount of lysis inhibition was calculated and plotted. IC50 values for the antibodies were also determined.
The optimized anti-PcrV mAb clones 7C1, 8C1, and 7B1 were further analyzed for their abilities to inhibit red blood cell lysis by various strains of P. aeruginosa, namely strains O1-52/66, O16-177/81, and O6-57/66, as compared to the parental 13-42 mAb and the reference antibody V2L2-MD. RBC lysis inhibition assay was performed as described in Example 1.

Row | Molecule | efficacy in inhibiting RBC lysis by strains O1-52/66, O16-177/81, O6-57/66 relative to V2L2-MD or parental 13-42 mAb
13 | B1 | better efficacy in inhibiting RBC lysis
14 | B2 | better efficacy in inhibiting RBC lysis
15 | B3 | better efficacy in inhibiting RBC lysis

tested on: P. aeruginosa (O6-57/66 strain); assay: Prophylactic acute pneumonia model in immunodeficient mice, survival; format: in vivo, BALB/c mice; settings: cyclophosphamide-immunosuppressed mice; 3.2 to 5 mg/kg i.p. 24 h before infection; 1*LD90; 10 days
Protocol: The ability of the optimized anti-PcrV antibodies 7C1, 7B1 and 8C1 to improve survival for acute pneumonia model in immunodeficient mice was evaluated in comparison to parental 13-42. HIV-10E8 was used as negative control. The acute pneumonia model in immunodeficient mice model was generated as described previously (DiGiandomenico et al., 2014, Sci. Transl. Med., 6: 262ra155).
In a prophylactic model, to achieve immunosuppression, 7-8 week old BALB/c mice (Vital River Laboratory) were first administered 2 doses of 150 mg/kg of cyclophosphamide, at 4 days and 1 day before P. aeruginosa infection, to suppress white cell count. Antibodies were then administered intraperitoneally (i.p.) at 24 h before infection, at doses of 3.2 to 5 mg/kg mouse weight. To induce acute pneumonia, the BALB/c mice were intranasally inoculated with P. aeruginosa (O6-57/66 strain) suspended in a 40 μl inoculum at the lethal dose (1*LD90=[…]). Mouse survival was recorded for up to 10 days post-infection.

Row | Molecule | survival improvement / protection relative to parental 13-42 antibody
16 | B1 | comparable or better protection than the parental 13-42 antibody
17 | B2 | comparable or better protection than the parental 13-42 antibody
18 | B3 | better survival improvement than the parental 13-42 antibody

tested on: P. aeruginosa (PA103 strain); assay: Therapeutic mouse acute pneumonia model, survival; format: in vivo, BALB/c mice; settings: i.v. 1 h post-infection, 1 mg/kg or 10 mg/kg; 1*LD90; 6 days
Protocol: In a therapeutic model, to induce acute pneumonia, 7-8 week old BALB/c mice (Vital River Laboratory) were intranasally inoculated with P. aeruginosa (PA103 strain) suspended in a 40 μl inoculum at a lethal dose (1*LD90=8×10^5 CFU). Antibodies or PBS were administered intravenously (i.v.) at 1 h post-infection, at a dose of 1 mg/kg or 10 mg/kg mouse weight. Mouse survival was recorded for up to 6 days post-infection.

Row | Molecule | survival improvement relative to V2L2-MD
19 | B1 | survival improvement comparable to that of V2L2-MD
20 | B2 | survival improvement comparable to that of V2L2-MD
21 | B3 | survival improvement comparable to that of V2L2-MD
